Measured values published in the DeepSol protein solubility set.

Assay: soluble on expression in E. coli; label from the status in PepcDB or PDB records

Row | Sequence | soluble on expression in E. coli
1 | MDSNLMSSVSTSAILGGENFADLFAESLKSQDMKSGEVISAEVVRVDHNFVVVNAGLKSEALIPLEEFLNDQGELEVQPGDFVSVAIDSLENGYGDTILSRDRAKRLSAWLQLEQALENGELVTGTITGKVKGGLTVMTNGIRAFLPGSLVDLRPVKDTTPYEGKTLEFKVIKLDRKRNNVVLSRRQVLEASMGEERQKLLETLHEGAVVKGVVKNITDYGAFVDLGGIDGLLHITDMAWRRVRHPSEVLQVGQEVEAKVLKFDQEKSRVSLGVKQLGEDPWVGLARRYPQGTRLFGKVTNLTDYGAFVEVEAGIEGLVHVSEMDWTNKNVDPRKVVTLGEEVEVMVLEIDEDRRRISLGMKQCRQNPWEEFATNFKRGDKVRGAIKSITDFGVFVGLPGGIDGLVHLSDLSWTESGEEAVRNFKKGDELEAVVLGIDTEKERISLGIKQLEGDPFNNFVATHDKGAVVPGTIKSVEPKGAVITLSVDVEGYLRASEISSGRVEDATTVLKAGENIEAMIVNIDRKARSIQLSIKARDNAETAETIQRMSEASASSGTTNLGALLKAKLDQQRNDGLEHHHHHH | not soluble
2 | GPGSMVVASCPGKVLILGGYLIVEEPNVGISVGTTARFVTRVASWKKCSDGKCRVHIVSSQFNKEFTFECAAEEDSDSTIKIVQLEGAPSPFLFYGILYSVAGALLFGGDIFRDVTLELLADNDFYSQRNYLESQGKPVTAANLRLIPRYTPLLGEVSKTGLGSSAAMTTSVVACLLQLYVFDSKKNNATESVERAPELPLRLEDVTEFIHRISQVAHCVAQGKVGSGFDVYTATFGTCVYRRFSARVLEKLVKGNEPPKRVTIPLLRECVETDEVWVQRIPFRLPTGLQLLLGDVHKGGTETPGMVSKVMSWRRSVTTDPNSLWERLRMSNEKYVEALQGLIKQSQEAPVAYTEAVKNLKSVVLAKHNPSTEAERLWVEAASVASTSRRYLREMGEAAQVQIEPPELTSLLDATCSIPGVFAVGCPGAGGYDAVFALVLGEEVCSAVERFWECYNDLQVCPLLVRGDANGLVLD | not soluble
3 | MVNPFIKEAKEKMKRTLEKIEDELRKMRTGKPSPAILEEIKVDYYGVPTPVNQLATISISEERTLVIKPWDKSVLSLIEKAINASDLGLNPINDGNVIRLVFPSPTTEQREKWVKKAKEIVEEGKIAIRNIRREILKKIKEDQKEGLIPEDDAKRLENEIQKLTDEFIEKLDEVFEIKKEEIMEF | soluble
4 | MGSDKIHHHHHHKQLVHEGYRVTGCKRSAEELSALTEVGIEAYPLQLGSEAPSAPDAQALSGLFQTDYLVVNIPPRLKRGNAAYLEELQQLIALTQGWQYQQIVFISTTGVYPAKDKVMTEADALAESSDSQVLLDAEALFQVLPHACIVRFAGLVGPKRHPGRFLAGKTDVSGANVAVNLVHLSDCVSAVSRILAATGSGLSVAPIYNLCAPTHPTKAEFYQAAAESLGLVAPEFNQQSMPSKVIQGDAIVTDLGFRYQYASPQDMLAAC | not soluble
5 | MAHHHHHHMSLYQRKTILAPMVRVGNVGFRVFCAAQGADVVFTEEIVAAKLARCHREVRVHNDAAGPMIEFVAYELFKNQYKRSVVFTTPARDMANQSGEGAPVVLQLGVSDAAVGVAAALLCCEDVDGIDVNMGCPKKFSVDNGMGAALMRDTSKAASILFALDDALNAPDKLAARGRRVPLSFKIRLLETAEATADMLISIMEKVGANRVHAITLHARTVNQVAEDSPHYDRAAEAVRRLRSHPLFKEMCFVLNGSVRSRDDGAVKMAQFGFDAIMIARHAMWDMSVFSRHVSSAGGRSSLTSEDAEAPLASTSWMDLYRSLLRTHAKYCTPFTYVKYHLTRSIPCIPALRHLMTAVQQEATCYEDLAKIFSLPLEEQESMRGVAAVEMVACVPNREVTLGVVSSNAIKHNDAARSGRVRSEKSAATPAAKKPRGE | soluble
6 | GPGSMFVSDNDDYLPEPQAPGDHHMHEERLRRLEENFALLLNQRSVGNASGPKESTPKARVTAVAADVQAADERSLKLTYELRELVPHLSPGFDCCSADALLLLSAIRNGSHGRGCESWEDRLAVVKAEKRSLHHQLEKKAQECEELKNAVAEMKQRLKAERQEALSSVNVLSQRREQVRKQLLLEESRSQKLQVRNGQLESELERLKDMLHSCMRR | not soluble
7 | MEQQQRYISVLDIGTSKVLALIGEVQDDDKINIVGLGQAPSRGLRAGMVTNIDATVQAIRQAVNDAELMADTKITHVTTGIAGNHIRSLNSQGVVKIKDGEVTQADIDRAIETAKAINIPPDQKILDAVVQDYIIDTQLGVREPIGMSGVRLDTRVHIITGASTAVQNVQKCIERCGLKSD | not soluble
8 | MLIPARMSEAEEQRWVTVMLDKLAAQESKRRLGDAELAERAERLSLQYFDGRARPTAVRWVTNQNTRWGSCTPSEGSIRLSHRLQGMPEYVVDYVLLHELAHLLVPGHGPRFWRLLEAYPRTERARGYLEGVVAADRLPHQPAPGAELEHHHHHH | not soluble
9 | MLHITAAKARAGGQIGGVFCLAQCSLNVLVSGMQTQPLPPLISARPVGRGARSNDAGRFEPLERVAEHDGWEREEELPPLRTQVSLETARSLISYNRSPDLPFDRSINPYRGCEHGCSYCFARPSHAYLGLSPGLDFETRLVARPNAAEVLRAELSARRYKVAPIAIGTNTDPYQPLEKTHAITRACLQVLAEFNHPVAIVTRGALIERDLDILAPMAARGLVRVGISLTTLDAALARRMEPRAPSPKRRLAMIRALNGAGVPVRVMTSPLIPGLTDHELESLLAAGAEAGADTASWIMLRLPREVSPLWQEWLAEHAPARAAKVMARLREMHGGRDYDPRWGHRMRGEGEYAQMIAKRFRAACKRIGLAQEAPALRCDLFRVPPQPGDQLSLF | not soluble
10 | MGSDKIHHHHHHMTTIHVSDLSKTYGTDTNVPVLSGVSFDLTSPAIHGLIGANGVGKTTLLRILAGQSRCEGVVEVDGQPAFDNPEVMDRCVLMGIDVPLPSTWRGTKLLSFAQHRYPRWDEARCAQLIDAFQVPVDKPYQSLSRGQKSALGIIIAFSATCDITLLDEPYLGLDVANRDLFYRELRAEQARCPRLIILSTHHINEASHVFDSVMVLKKDGVALQGDVESITGRVVELVGPKATIEGFVSHPARRIGEVHTAGGVAKVLAEARAEEWDQLSALGLRTHEVSLERAVMFLECD | not soluble
11 | MGSDKIHHHHHHMYVAVKGGETAIANAHSLLADRRRGDRSLPTMTVDQIVEQLTLAVGRVMAEASLYDRKLAALAIKQARGDMIEAIFLLRAYRTTLPRFGLSEPVDTGAMRIERRISATYKDLPGGQLLGPTFDYTHRLLDPSLLEEGDVEPPVQKIPTSEAAMRVSDILREEGLIEPDGDMPEDHLAGDITRQPIEFPMARDLRLQSLARGDEGFLLALAYSTQRGYGRSHPFAGEIRLGEVEVELDVPELGFAVSLGRIQVTECQMVNQFKGSSKAPPQFTRGYGLVFGQSERKAMAMSLVDRSLRAEELGEDITAPAQDQEFVLSHCDNVQATGFVEHLKLPHYVDFQAELDLVRRMRSEHEQARQQGLDLSEAAE | not soluble
12 | MSLRLLRVVGCPEWVIDHSLAVRKKALELSRELPVDMKLVEEGAILHDIGRCRTSGVEHAVEGARILEGFGYPPEVVRIVERHVGAGIPPEEAKALGLPPGDYMPRTLEEKIVAHADNLINGSDEVDIDFVIKKWSDRLGADHPSIESLKRLHEELLGHL | not soluble
13 | MGHHHHHHSHEELGLKVGLEIHRQLDTKKLFSPVPTKFSDEVDFTFQRRLRPTMSELGEVDPAALEEFKKGRVFIYEGNYQLTDLVYMDEEPPRGPDKEALEVALQIAYLLNAKPVDEVYYMRKIVIDGSNVSGFQRTAIIATDGKVETPWGTVGIPTICLEEDAARIIERKEKEVIYRLDRLGVPLVEISTTPDIHHPEQAKVVAKFIGDALRATRKVKRGLGTIRQDLNVSIKGGARIEIKGVQELDMIPLIIEREVERQLNLLKIR | not soluble
14 | MGSDKIHHHHHHVTAPAFLPVILAGGSGERFWPLSRKHRPKQFLTLDETGRSLLQATSDRLGRLSGSPEQVMVVTGTEYRTQVLEQLPDMPIEHLIVEPVARDTAPAVLYAALRVAQENPQAVMGVFPADHRITDAQAFGRVVRRAIEVAEITGGLVTLGVTPTFPATGYGYIQRGEQLLGGELPAFRVSRFTEKPDAETAQLFLADGRYTWNSGMFIWRVQAILAAFEQYQPDMYAQLSAAVRGSPRQVRAVFPELQKISIDYAILEKSDQVVVIPAEFGWDDLGDWNALERLLKGEGQNVAVGRHVGLDTDGAILYTTGGDGLIATIGLEDVVVVRTDEVTLVVRKDRTQDIKKVVQQLKSHPELERFA | not soluble
15 | AHHHHHHGSGLFDKLKKAEVQKKVPSSLKSRIKEEPSEVELVPVEEEVLAKELVKPKVVYIKKIVISTHADLKRVSDELKSGNIVIVELTPLEQKPELLKKIAEQLMTTASIIGGDYAKICGSPLKVILTPPEIKIAKE | not soluble
16 | MKIPSLQSNFNFSAPAGYSAPIAPNRAENAYADYVLDIGKRIPLSAADLSNVYESVIRAVHDSRSRLIDQHTVDMIGNTVLDALSRSQTFRDAVSYGIHNEKVHIGCIKYRNEYELNEESSVKIDDIQSLTCNELYEYDVGQEPIFPICEAGENDNEEPYVSFSVAPDTDSYEMPSWQEGLIHEIIHHVTGSSDPSGDSNIELGPTEILARRVAQELGWSVPDFKGYAEPEREAHLRLRNLNALRQAAMRHEENERAFFERLGTISDRYEASPDFTEYSAVSNIGYGFIQQHDFPGLAINDNLQDANQIQLYHGAPYIFTFGDVDKHNQQ | soluble
17 | MKKIRLAVIGTGMAWERLHYPAIKELEDKYEIVALCNRTRKDAEEFAKKINLSMDRVYDDYNEMLKRQDIDAVDILVPIESNYTVSEAVAKAGKDFICEKPLAANREEAKKYLELSKKYNVRIMIAENYRYSDEYNKIRDIVNSGKIGDVVYFIKNNISCFPCEMTKDTFAATEWRQHPKFYGGAFLDAAVHDIAAMRHIFGAVECVQAFGKPQAEDFNPYVSVNAHILFKNGVIGYYTYYPSGIETQKPAVGFRIFGTKGEIYLEDKTCGIINVSYHDGTSELVNFIPERGFYNELLNYYNAINGTEQISVTPEMEYGDVKMVFDILDSVSFREIIYVDEEEPKRRLEIADDEAKIHPFLQ | not soluble
18 | MNKQPGEQPVSCATSTGKSEKERQKDEPPRSRAEAGMMRGGGRLPQPRDTPMEVPNMIAAMPIQMTGFVDLAPHTILDVLAQTTSLMIVQCLEPLEIFTGIETPNRYVVHDMYCRPLLYCMERSSFFARQHQGSQRNFAMQCMDIFGAPVMNCFRSRPCCSCDDFLATEFLGQRIGMMKRECCDDNFHLVGTGSNEPLLVRSPGCACCGGTQVFPVMTYNGAKIGEIVRLYPGFMQEWYTDADTYIVHFPPDLPPILKILLISSTFLIDYTFFENRGGNQRGGYGHGGYGYY | not soluble
19 | MGSDKIHHHHHHAQNFSDYFEDKTLRADYIFTGDAKKQEVYLDELSSLPQWAGRKHHLAELPLAGNGEITMKDKATGETIYRTSFSSLFQEWVSEEEASRIKRGFENSFLLPYPKKEAVVTISLKDVYHKVNASLTHEIIPNDILIHQRGTNHITPHRYLLQNGNAADCIDVAIMAEGYTEKEMDIFYKDAQTACDALFSHEPFKKLKDKFNIVAVASPSEDSGVSIPGQGKWKSTAVSSHFNTFYSDRYLTTSRVKSIHNWLAGIPYEHIIILANTDTYGGGGIYNSYTLTTAHHPDFQPVVVHEFGHSFGGLADEYAYTETPSPQYPYEVEPWEPNITTLIDFDSKWKDMIPEGTAIPTPVATENADLYTKVGVYEGAGYTQKGLYRPTTECRMKINEAPAFCPVCQRALERLINFYTAK | not soluble
20 | MRDNLVEQIISDVMNKQTDISPEAKTAANFAGCGITEFVGTALGHTIGLVIANVDNQLHEVMNIDKKYRSIGILGARTGAGPQIFAADEAIKATNSEIISIELARDTEGGGGHGCLIIFGASDVSDVRRAVEVALSEIERTMGDVYGSSAGHLEFQYTARASYALNKALGAPIGKSFGMTCASPAAIGLVIADAAAKSAVIDPVGYASPSQGTSFSNEVIFTFSGDSGAVRQAVIAAREVGLQLLSTLDPVEIKSTTTPYI | soluble
